Measured values published in paper PMC9682848.

Target: lamprey serum spherical lectin (LSSL), native, from lamprey serum (Lampetra japonica (endogenous in lamprey serum))
Assay: cryo-EM structure; native LSSL purified from serum, 2 μg/μL, vitrified; Titan Krios 300 kV; RELION 3.1

## lamprey serum spherical lectin (LSSL), native, from lamprey serum (natural protein)
  stoichiometry N: 3
